According to the supplement of paper PMC11136658:

Tested on: peptide library, one residue held at a place counted from the Y acceptor
Test: relative phosphorylation of the sub-library (ratio to the mean residue at this position); higher = residue favoured
Summary of the method: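 Every value reflects phosphorylation relative to the mean randomized residue. The sum of the 18 randomized residues, or 16 in the Ser/Thr-free library, served to normalize intensities at each position, which were then multiplied by that number. Intensities came from phosphorimaging with ImageQuant of biotinylated Tyr-centred peptides captured on streptavidin membranes after 90 min with purified recombinant kinases and 50 μM ATP plus γ-32P-ATP.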

Chain of PTK2B, construct: aa360-690, human (Q14289 360-690, looked up): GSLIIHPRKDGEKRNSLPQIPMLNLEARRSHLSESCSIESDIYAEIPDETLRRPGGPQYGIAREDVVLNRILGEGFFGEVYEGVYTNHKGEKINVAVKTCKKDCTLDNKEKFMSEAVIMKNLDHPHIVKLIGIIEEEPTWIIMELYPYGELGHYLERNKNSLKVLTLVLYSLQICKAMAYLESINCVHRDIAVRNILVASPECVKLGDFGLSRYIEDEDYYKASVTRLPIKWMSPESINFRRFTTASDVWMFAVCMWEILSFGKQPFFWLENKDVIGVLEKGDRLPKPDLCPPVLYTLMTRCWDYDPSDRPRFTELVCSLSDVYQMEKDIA
Chain of PKMYT1, construct: Full length, human (Q99640 whole entry, looked up): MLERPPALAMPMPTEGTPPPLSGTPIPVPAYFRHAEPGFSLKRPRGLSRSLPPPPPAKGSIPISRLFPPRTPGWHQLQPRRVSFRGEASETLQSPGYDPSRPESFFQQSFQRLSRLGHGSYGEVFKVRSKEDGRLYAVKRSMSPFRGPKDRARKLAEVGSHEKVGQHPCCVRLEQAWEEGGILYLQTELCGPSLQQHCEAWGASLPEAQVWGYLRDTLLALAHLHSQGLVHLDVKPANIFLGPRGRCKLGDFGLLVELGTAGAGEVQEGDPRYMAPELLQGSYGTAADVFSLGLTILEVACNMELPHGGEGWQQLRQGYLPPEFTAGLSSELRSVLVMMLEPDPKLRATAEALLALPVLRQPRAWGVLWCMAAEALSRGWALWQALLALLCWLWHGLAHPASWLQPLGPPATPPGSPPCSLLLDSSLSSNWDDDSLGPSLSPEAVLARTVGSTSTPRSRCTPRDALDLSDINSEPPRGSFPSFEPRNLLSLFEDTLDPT

PKMYT1, construct: Full length, human (from UniProt Q99640)
relative phosphorylation
Conditions	at +1	at +2	at +3	at +4	at +5	at -1	at -2	at -3	at -4	at -5
A fixed	0.864	0.982	0.813	1.11	0.947	1.04	1.05	1.2	1.2	1.16
D fixed	0.69	0.754	0.728	0.889	0.933	0.756	0.814	0.784	0.792	0.741
E fixed	0.834	0.775	0.66	0.833	0.979	0.845	0.915	0.837	0.84	0.772
F fixed	0.794	1.12	1.55	1.01	1.03	0.72	1.01	1.09	1.06	1.18
G fixed	1.64	1.08	1.01	1.18	1.03	2.03	1.4	1.14	1.27	0.902
H fixed	0.813	0.945	0.911	1.11	1.13	0.945	1.14	1.06	1.01	1.15
I fixed	1.29	1.03	1.24	1.1	1	0.863	1.09	0.996	0.901	1.02
K fixed	1	1.32	0.831	1.09	1	1.02	0.978	0.943	1.03	1.2
L fixed	0.691	0.935	0.973	0.928	0.912	0.705	0.791	0.867	0.758	0.886
M fixed	0.837	0.935	0.988	0.966	0.936	0.751	0.897	0.883	0.875	0.908
N fixed	0.774	0.873	0.728	0.785	0.905	0.834	0.982	0.93	0.87	0.885
P fixed	1.35	1.14	1.09	0.925	1.02	1.45	1	1.11	1.14	0.842
Q fixed	0.865	0.821	0.667	0.787	0.853	0.828	0.777	0.867	0.928	0.855
R fixed	1.18	1.25	0.938	1.12	1.29	1.18	1.08	1.23	1.26	1.31
V fixed	1.39	1.07	0.967	0.998	0.918	1.01	1.09	1.04	0.936	0.928
W fixed	0.992	0.962	1.92	1.16	1.12	1.02	0.995	1.02	1.15	1.26
pThr fixed	0.868	0.729	0.691	0.838	0.635	1.04	0.974	0.888	0.912	0.719
pTyr fixed	0.831	0.87	0.7	0.883	0.789	1.83	0.974	1.05	0.841	0.849

PTK2B, construct: aa360-690, human (from UniProt Q14289)
relative phosphorylation
Conditions	at +1	at +2	at +3	at +4	at +5	at -1	at -2	at -3	at -4	at -5
A fixed	2.28	0.739	0.756	0.904	1.08	0.722	1.03	1.03	1.15	1.03
D fixed	1.55	0.792	0.312	0.86	0.799	0.478	1.34	1.28	0.976	0.952
E fixed	2.04	1.29	0.341	0.961	0.887	0.489	1.54	1.52	0.85	0.801
F fixed	0.834	1.85	1.42	1.04	0.992	1.06	0.634	0.986	1.29	1.07
G fixed	1.1	0.402	0.58	1.02	1.31	0.297	1.06	1.07	1.23	1.14
H fixed	0.593	0.657	0.685	1.05	0.966	0.719	0.953	0.965	1.01	1.05
I fixed	1.12	1.56	2.46	0.896	0.903	4.36	1.02	0.657	0.851	0.978
K fixed	0.171	0.444	0.228	0.762	0.731	0.29	0.703	0.866	0.915	1.13
L fixed	0.499	1.68	1.61	0.925	0.92	1.99	1.02	0.816	1.07	1.04
M fixed	0.908	1.13	1.11	1.15	1	0.811	0.729	0.903	0.939	1.08
N fixed	0.297	0.815	0.397	0.711	0.838	0.63	1.13	1.18	0.937	1.02
P fixed	0.374	0.702	2.31	1.08	1.72	0.488	1.15	0.97	1.14	1.01
Q fixed	0.788	0.679	0.365	0.992	0.758	0.443	1.09	0.895	0.918	0.896
R fixed	0.215	0.603	0.298	0.938	0.912	0.374	0.748	0.923	0.969	1.16
S fixed	1.15	0.82	0.669	0.981	1.1	0.534	1.08	1.27	0.927	0.98
T fixed	1.02	0.823	0.794	0.875	1.09	0.935	0.962	1.02	0.679	0.825
V fixed	2.02	1.27	2.28	1.09	0.926	2.67	1.2	0.704	0.86	0.926
W fixed	1.04	1.75	1.4	1.77	1.07	0.714	0.613	0.95	1.3	0.917
pThr fixed	3.7	2.29	0.44	0.84	0.752	0.624	1.09	0.878	0.728	0.817
pTyr fixed	2.13	6.16	0.885	1.48	0.901	1.53	1.17	1.32	0.964	0.94
